From patent US20220411504A1 (Janssen / Centocor, published 2022)

B1: HC3B238 (bispecific antibody, human IgG1, kappa, L234A L235A)
scFv: EVQLVESGGGLVKPGGSLRLSCAASGFTFSRYNMNWVRQAPGKGLEWVSSISTSSNYIYYADSVKGRFTFSRDNAKNSLDLQMSGLRAEDTAIYYCTRGWGPFDYWGQGTLVTVSSGGSEGKSSGSGSESKSTGGSDIQMTQSPSSLSASVGDRVTITCRARQSIGTAIHWYQQKPGKAPKLLIKYASESISGVPSRFSGSGSGTDFTLTISSVQPEDFATYYCQQSGSWPYTFGQGTKLEIKEPKSSDKTHTCPPCPAPEAAGGPSVFLFPPKPKDTLMISRTPEVTCVVVSVSHEDPEVKFNWYVDGVEVHNAKTKPREEQYNSTYRVVSVLTVLHQDWLNGKEYKCKVSNKALPAPIEKTISKAKGQPREPQVYVYPPSREEMTKNQVSLTCLVKGFYPSDIAVEWESNGQPENNYKTTPPVLDSDGSFALVSKLTVDKSRWQQGNVFSCSVMHEALHNHYTQKSLSLSPGK
heavy: QVQLQQSGPGLVKPSQTLSLTCAISGDSVSSNRAAWNWIRQSPSRGLEWLGRTYYRSKWYNDYAVSVKSRITINPDTSKNQISLQLNSVTPEDTAVYYCARVRPGIPFDYWGQGTPVTVSSASTKGPSVFPLAPSSKSTSGGTAALGCLVKDYFPEPVTVSWNSGALTSGVHTFPAVLQSSGLYSLSSVVTVPSSSLGTQTYICNVNHKPSNTKVDKKVEPKSCDKTHTCPPCPAPEAAGGPSVFLFPPKPKDTLMISRTPEVTCVVVSVSHEDPEVKFNWYVDGVEVHNAKTKPREEQYNSTYRVVSVLTVLHQDWLNGKEYKCKVSNKALPAPIEKTISKAKGQPREPQVYVLPPSREEMTKNQVSLLCLVKGFYPSDIAVEWESNGQPENNYLTWPPVLDSDGSFFLYSKLTVDKSRWQQGNVFSCSVMHEALHNHYTQKSLSLSPG
light: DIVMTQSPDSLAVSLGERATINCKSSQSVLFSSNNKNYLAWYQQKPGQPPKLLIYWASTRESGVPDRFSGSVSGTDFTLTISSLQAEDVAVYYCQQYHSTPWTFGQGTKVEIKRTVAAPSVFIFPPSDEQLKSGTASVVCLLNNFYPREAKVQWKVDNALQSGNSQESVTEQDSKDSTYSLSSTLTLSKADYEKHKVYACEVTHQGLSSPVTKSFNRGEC
B2: HC3B237 (bispecific antibody, human IgG1, kappa, L234A L235A)
scFv: DIQMTQSPSSLSASVGDRVTITCRARQSIGTAIHWYQQKPGKAPKLLIKYASESISGVPSRFSGSGSGTDFTLTISSVQPEDFATYYCQQSGSWPYTFGQGTKLEIKGGSEGKSSGSGSESKSTGGSEVQLVESGGGLVKPGGSLRLSCAASGFTFSRYNMNWVRQAPGKGLEWVSSISTSSNYIYYADSVKGRFTFSRDNAKNSLDLQMSGLRAEDTAIYYCTRGWGPFDYWGQGTLVTVSSEPKSSDKTHTCPPCPAPEAAGGPSVFLFPPKPKDTLMISRTPEVTCVVVSVSHEDPEVKFNWYVDGVEVHNAKTKPREEQYNSTYRVVSVLTVLHQDWLNGKEYKCKVSNKALPAPIEKTISKAKGQPREPQVYVYPPSREEMTKNQVSLTCLVKGFYPSDIAVEWESNGQPENNYKTTPPVLDSDGSFALVSKLTVDKSRWQQGNVFSCSVMHEALHNHYTQKSLSLSPGK
heavy: QVQLQQSGPGLVKPSQTLSLTCAISGDSVSSNRAAWNWIRQSPSRGLEWLGRTYYRSKWYNDYAVSVKSRITINPDTSKNQISLQLNSVTPEDTAVYYCARVRPGIPFDYWGQGTPVTVSSASTKGPSVFPLAPSSKSTSGGTAALGCLVKDYFPEPVTVSWNSGALTSGVHTFPAVLQSSGLYSLSSVVTVPSSSLGTQTYICNVNHKPSNTKVDKKVEPKSCDKTHTCPPCPAPEAAGGPSVFLFPPKPKDTLMISRTPEVTCVVVSVSHEDPEVKFNWYVDGVEVHNAKTKPREEQYNSTYRVVSVLTVLHQDWLNGKEYKCKVSNKALPAPIEKTISKAKGQPREPQVYVLPPSREEMTKNQVSLLCLVKGFYPSDIAVEWESNGQPENNYLTWPPVLDSDGSFFLYSKLTVDKSRWQQGNVFSCSVMHEALHNHYTQKSLSLSPG
light: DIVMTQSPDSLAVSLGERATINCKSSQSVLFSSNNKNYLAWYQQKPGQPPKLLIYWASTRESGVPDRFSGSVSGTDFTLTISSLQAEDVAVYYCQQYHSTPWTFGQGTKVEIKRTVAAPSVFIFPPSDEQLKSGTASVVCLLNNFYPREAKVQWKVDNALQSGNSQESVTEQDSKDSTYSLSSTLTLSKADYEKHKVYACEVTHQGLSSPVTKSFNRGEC
B3: HC3B236 (bispecific antibody, human IgG1, kappa, L234A L235A)
scFv: QSALTQPASVSGSPGQSITISCTGTSSNIGTYKFVSWYQQHPGKAPKVMIYEVSKRPSGVSNRFSGSKSGNTASLTISGLQAEDEADYYCVSYAGSGTLLFGGGTKLTVLGGSEGKSSGSGSESKSTGGSQVQLQQSGPGLVKPSQTLSLTCAISGDSVFNNNAAWSWIRQSPSRGLEWLGRTYYRSKWLYDYAVSVKSRITINPDTSKNQFSLQLNSVTPEDTAVYYCARGYSSSFDYWGQGTLVTVSSEPKSSDKTHTCPPCPAPEAAGGPSVFLFPPKPKDTLMISRTPEVTCVVVSVSHEDPEVKFNWYVDGVEVHNAKTKPREEQYNSTYRVVSVLTVLHQDWLNGKEYKCKVSNKALPAPIEKTISKAKGQPREPQVYVYPPSREEMTKNQVSLTCLVKGFYPSDIAVEWESNGQPENNYKTTPPVLDSDGSFALVSKLTVDKSRWQQGNVFSCSVMHEALHNHYTQKSLSLSPG
heavy: QVQLQQSGPGLVKPSQTLSLTCAISGDSVSSNRAAWNWIRQSPSRGLEWLGRTYYRSKWYNDYAVSVKSRITINPDTSKNQISLQLNSVTPEDTAVYYCARVRPGIPFDYWGQGTPVTVSSASTKGPSVFPLAPSSKSTSGGTAALGCLVKDYFPEPVTVSWNSGALTSGVHTFPAVLQSSGLYSLSSVVTVPSSSLGTQTYICNVNHKPSNTKVDKKVEPKSCDKTHTCPPCPAPEAAGGPSVFLFPPKPKDTLMISRTPEVTCVVVSVSHEDPEVKFNWYVDGVEVHNAKTKPREEQYNSTYRVVSVLTVLHQDWLNGKEYKCKVSNKALPAPIEKTISKAKGQPREPQVYVLPPSREEMTKNQVSLLCLVKGFYPSDIAVEWESNGQPENNYLTWPPVLDSDGSFFLYSKLTVDKSRWQQGNVFSCSVMHEALHNHYTQKSLSLSPG
light: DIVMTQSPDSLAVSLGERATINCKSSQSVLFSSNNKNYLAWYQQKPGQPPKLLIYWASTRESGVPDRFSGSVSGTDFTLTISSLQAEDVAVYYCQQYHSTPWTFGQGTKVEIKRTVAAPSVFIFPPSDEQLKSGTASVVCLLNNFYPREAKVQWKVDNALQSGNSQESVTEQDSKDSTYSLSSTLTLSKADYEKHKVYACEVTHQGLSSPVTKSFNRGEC
B4: CD3W241-HL-E.C. (scFv)
chain: EVQLVESGGGLVKPGGSLRLSCAASGFTFSRYNMNWVRQAPGKGLEWVSSISTSSNYIYYADSVKGRFTFSRDNAKNSLDLQMSGLRAEDTAIYYCTRGWGPFDYWGQGTLVTVSSGTEGKSSGSGSESKSTDIQMTQSPSSLSASVGDRVTITCRARQSIGTAIHWYQQKPGKAPKLLIYYASESISGVPSRFSGSGSGTDFTLTISSVQPEDFATYYCQQSNSWPYTFGQGTKLEIKGPGGQHHHHHHGAYPYDVPDYAS
B5: HC3B123 (bispecific antibody, human IgG1, kappa, L234A L235A)
heavy: EVQLVESGGGLVKPGGSLRLSCAASGFTFSRYNMNWVRQAPGKGLEWVSSISTSSNYIYYADSVKGRFTFSRDNAKNSLDLQMSGLRAEDTAIYYCTRGWGPFDYWGQGTLVTVSSASTKGPSVFPLAPSSKSTSGGTAALGCLVKDYFPEPVTVSWNSGALTSGVHTFPAVLQSSGLYSLSSVVTVPSSSLGTQTYICNVNHKPSNTKVDKKVEPKSCDKTHTCPPCPAPEAAGGPSVFLFPPKPKDTLMISRTPEVTCVVVSVSHEDPEVKFNWYVDGVEVHNAKTKPREEQYNSTYRVVSVLTVLHQDWLNGKEYKCKVSNKALPAPIEKTISKAKGQPREPQVYVYPPSREEMTKNQVSLTCLVKGFYPSDIAVEWESNGQPENNYKTTPPVLDSDGSFALVSKLTVDKSRWQQGNVFSCSVMHEALHNHYTQKSLSLSPG
light: DIQMTQSPSSLSASVGDRVTITCRARQSIGTAIHWYQQKPGKAPKLLIKYASESISGVPSRFSGSGSGTDFTLTISSVQPEDFATYYCQQSGSWPYTFGQGTKLEIKRTVAAPSVFIFPPSDEQLKSGTASVVCLLNNFYPREAKVQWKVDNALQSGNSQESVTEQDSKDSTYSLSSTLTLSKADYEKHKVYACEVTHQGLSSPVTKSFNRGEC
scFv: DIVMTQSPDSLAVSLGERATINCKSSQSVLHSSNNKNYLTWFQQKPGQPPKLLIYWASTRESGVPDRFSGSGSGTDFTLTISSLQAEDVAVYYCHQYYSTPPTFGQGTKVEIKGGSEGKSSGSGSESKSTGGSQVQLQQSGPGLVKPSQTLSLTCAISGDSVSSNSAAWNWIRQSPSRGLEWLGRTYYRSKWYNDYAVSVKSRITINPDTSKNQISLQLNSVTPEDTAVYYCAGDRRYGIVGLPFAYWGQGTLVTVSSEPKSSDKTHTCPPCPAPEAAGGPSVFLFPPKPKDTLMISRTPEVTCVVVSVSHEDPEVKFNWYVDGVEVHNAKTKPREEQYNSTYRVVSVLTVLHQDWLNGKEYKCKVSNKALPAPIEKTISKAKGQPREPQVYVLPPSREEMTKNQVSLLCLVKGFYPSDIAVEWESNGQPENNYLTWPPVLDSDGSFFLYSKLTVDKSRWQQGNVFSCSVMHEALHNHYTQKSLSLSPG
B6: HC3B214 (bispecific antibody, human IgG1, kappa, L234A L235A)
heavy: EVQLVESGGGLVKPGGSLRLSCAASGFTFSRYNMNWVRQAPGKGLEWVSSISTSSNYIYYADSVKGRFTFSRDNAKNSLDLQMSGLRAEDTAIYYCTRGWGPFDYWGQGTLVTVSSASTKGPSVFPLAPSSKSTSGGTAALGCLVKDYFPEPVTVSWNSGALTSGVHTFPAVLQSSGLYSLSSVVTVPSSSLGTQTYICNVNHKPSNTKVDKKVEPKSCDKTHTCPPCPAPEAAGGPSVFLFPPKPKDTLMISRTPEVTCVVVSVSHEDPEVKFNWYVDGVEVHNAKTKPREEQYNSTYRVVSVLTVLHQDWLNGKEYKCKVSNKALPAPIEKTISKAKGQPREPQVYVYPPSREEMTKNQVSLTCLVKGFYPSDIAVEWESNGQPENNYKTTPPVLDSDGSFALVSKLTVDKSRWQQGNVFSCSVMHEALHNHYTQKSLSLSPG
light: DIQMTQSPSSLSASVGDRVTITCRARQSIGTAIHWYQQKPGKAPKLLIKYASESISGVPSRFSGSGSGTDFTLTISSVQPEDFATYYCQQSGSWPYTFGQGTKLEIKRTVAAPSVFIFPPSDEQLKSGTASVVCLLNNFYPREAKVQWKVDNALQSGNSQESVTEQDSKDSTYSLSSTLTLSKADYEKHKVYACEVTHQGLSSPVTKSFNRGEC
scFv: not shown
B7: HC3B216 (bispecific antibody, human IgG1, lambda, L234A L235A)
heavy: QVQLQQSGPRLVRPSQTLSLTCAISGDSVFNNNAAWSWIRQSPSRGLEWLGRTYYRSKWLYDYAVSVKSRITVNPDTSRNQFTLQLNSVTPEDTALYYCARGYSSSFDYWGQGTLVTVSSASTKGPSVFPLAPSSKSTSGGTAALGCLVKDYFPEPVTVSWNSGALTSGVHTFPAVLQSSGLYSLSSVVTVPSSSLGTQTYICNVNHKPSNTKVDKKVEPKSCDKTHTCPPCPAPEAAGGPSVFLFPPKPKDTLMISRTPEVTCVVVSVSHEDPEVKFNWYVDGVEVHNAKTKPREEQYNSTYRVVSVLTVLHQDWLNGKEYKCKVSNKALPAPIEKTISKAKGQPREPQVYVYPPSREEMTKNQVSLTCLVKGFYPSDIAVEWESNGQPENNYKTTPPVLDSDGSFALVSKLTVDKSRWQQGNVFSCSVMHEALHNHYTQKSLSLSPG
light: QSALTQPASVSGSPGQSITISCTGTSSNIGTYKFVSWYQQHPDKAPKVLLYEVSKRPSGVSSRFSGSKSGNTASLTISGLQAEDQADYHCVSYAGSGTLLFGGGTKLTVLGQPKAAPSVTLFPPSSEELQANKATLVCLISDFYPGAVTVAWKADSSPVKAGVETTTPSKQSNNKYAASSYLSLTPEQWKSHRSYSCQVTHEGSTVEKTVAPTECS
scFv: not shown

What was measured:
[1] = molecular target: HLA-G on cells (K562-HLA-G and HLA-G expressing tumor cells) (human); experiment: cell-based or functional assay
[2] = molecular target: T1, Human CD3 epsilon (CD3ε) of the T cell receptor complex on cells (human, UniProt P07766 23-207); experiment: flow cytometry, E. coli supernatant on human T cells
T1 construct: On Jurkat cells and primary human (pan) T cells; also called T-cell surface glycoprotein CD3 epsilon chain; T3E
T1 sequence (P07766 23-207 limits assumed, one chain of several): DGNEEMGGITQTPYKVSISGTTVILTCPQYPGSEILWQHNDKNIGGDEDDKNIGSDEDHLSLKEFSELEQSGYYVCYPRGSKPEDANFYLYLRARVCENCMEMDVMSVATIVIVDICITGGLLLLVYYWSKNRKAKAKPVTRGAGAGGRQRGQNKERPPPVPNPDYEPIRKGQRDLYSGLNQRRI

Binder | Cytotoxicity, EC50 (T cell-mediated, NCI-H2009-b2m target cells, 72 hr) [1] [pM] | MFI (n = 2) [2]
B1 | 17.3 | 
B2 | 133 | 
B3 | 4540 | 
B4 |  | 121000
B5 | 3.24 | 
B6 | 138 | 
B7 | 1900 | 
